To fix the notation:
B3: bone morphogenetic protein 7 (BMP7), human (ligand, UniProt P18075 293-431, looked up)
chain: STGSKQRSQNRSKTPKNQEALRMANVAENSSSDQRQACKKHELYVSFRDLGWQDWIIAPEGYAAYYCEGECAFPLNSYMNATNHAIVQTLVHFINPETVPKPCCAPTQLNAISVLYFDDSSNVILKKYRNMVVRACGCH
modifications: biotin (sulfo-NHS-LC-biotin) where immobilised
notes: human BMP7, CHO-cell derived, bought; dimeric ligand; also called hBMP7; source: bought: R&D Systems (CHO-cell derived)
B4: BMP receptor II (BMPR-II) ectodomain, human (receptor, UniProt Q13873 32-150, looked up)
chain: RLCAFKDPYQQDLGIGESRISHENGTILCSKGSTCYGLWEKSKGDINLVKQGCWSHIGDPQECHYEECVVTTTPPSIQNGTYRFCCCSTDLCNVNFTENFPPPDTTPLSPPHSFNRDET
modifications: N-biotinylated (sulfo-NHS-LC-biotin) where immobilised
notes: also called hBMPR-II

Common to all, as to conditions: both partners purified
In assay [1] the target is B4. Description: SPR; Biacore 2000; receptor ectodomains as analyte over biotinylated ligands on streptavidin-coated CM5 chips; HBS500, 25°C, 10 μl/min; apparent affinities, 1:1 interaction. Background: SPR reads the build-up and loss of mass on a sensor chip optically.
For assay [2], the target named is B4. The assay is described as follows: SPR; Biacore 2000; ligands as analyte over biotinylated receptor ectodomains (about 200 RU) on streptavidin-coated CM5 chips; HBS500 (10 mM HEPES pH 7.4, 500 mM NaCl, 3.4 mM EDTA, 0.005% P20), 25°C, 10 μl/min; apparent affinities, 1:2 interaction with avidity.
In assay [3] the target is T1, activin receptor type II (ActR-II) ectodomain, human (human, UniProt P27037 18-135, N-biotinylated (sulfo-NHS-LC-biotin) where immobilised).
T1 construct: also called hActR-II
The assay is described as follows: SPR; Biacore 2000; receptor ectodomains as analyte over biotinylated ligands on streptavidin-coated CM5 chips; HBS500, 25°C, 10 μl/min; apparent affinities, 1:1 interaction.

Assay [4] has as its target T1, activin receptor type II (ActR-II) …. The assay is described as follows: SPR; Biacore 2000; ligands as analyte over biotinylated receptor ectodomains (about 200 RU) on streptavidin-coated CM5 chips; HBS500 (10 mM HEPES pH 7.4, 500 mM NaCl, 3.4 mM EDTA, 0.005% P20), 25°C, 10 μl/min; apparent affinities, 1:2 interaction with avidity.
Assay [5] deals with B3. Description: SPR; Biacore 2000; receptor ectodomains as analyte over biotinylated ligands on streptavidin-coated CM5 chips; HBS500, 25°C, 10 μl/min; apparent affinities, 1:1 interaction.
Assay [6] concerns the target B3. Description: SPR; Biacore 2000; ligands as analyte over biotinylated receptor ectodomains (about 200 RU) on streptavidin-coated CM5 chips; HBS500 (10 mM HEPES pH 7.4, 500 mM NaCl, 3.4 mM EDTA, 0.005% P20), 25°C, 10 μl/min; apparent affinities, 1:2 interaction with avidity.

Where only a bound is given, the exact number is not on record here.

We go through four molecules from paper PMC2749821 (BMC Biology, 2009).

B1: growth and differentiation factor 5 (GDF5), mature part (ligand)
chain: MKRQGKRPSKNLKARCSRKALHVNFKDMGWDDWIIAPLEYEAFHCEGLCEFPLRSHLEPTNHAVIQTLMNSMDPESTPPTCCVPTRLSPISILFIDSANNVVYKQYEDMVVESCGCR
modifications: biotin (sulfo-NHS-LC-biotin) where immobilised
notes: N-terminal Met-Lys added to the mature part; dimeric ligand; source: E. coli, isolated from inclusion bodies, renatured and purified
Regarding B1, the Kd in assay [1] came to 60 µM; in assay [2], 46 nM. In addition, the “KD (kin)” value in assay [2] amounted to 36 nM.

B2: bone morphogenetic protein 2 (BMP2), mature part, wild type (ligand, human)
chain: MAQAKHKQRKRLKSSCKRHPLYVDFSDVGWNDWIVAPPGYHAFYCHGECPFPLADHLNSTNHAIVQTLVNSVNSKIPKACCVPTELSAISMLYLDENEKVVLKNYQDMVVEGCGCR
modifications: biotin (sulfo-NHS-LC-biotin) where immobilised
notes: N-terminal Met-Ala added to the mature part; dimeric ligand; also called wtBMP2; BMP2wt; source: E. coli, isolated from inclusion bodies, renatured and purified
In the case of B2, the Kd in assay [1] amounted to 13 µM. Further, in assay [2], the “KD (kin)” value worked out at 45 nM and the Kd is 59 nM.
In general, koff refers to the first-order rate constant of dissociation. For orientation: kon means the rate constant with which the complex forms. Take B3: in assay [3], the Kd was 880 nM and the koff was over 0.1 s⁻¹. In addition, in assay [4], the “KD (kin)” value came to 5.1 nM, the Kd came out at 8 nM, the koff was 0.0062 s⁻¹ and the kon worked out at 1.2e+06 M⁻¹ s⁻¹. The “KD (kin)” value in assay [2] came to 25 nM.
With B4, in assay [5], the Kd was determined as 9.1 µM and the dissociation rate constant (koff) is over 0.1 s⁻¹. Further, in assay [6], the Kd came to 40 nM, the koff was found to be 0.024 s⁻¹ and the on-rate (kon) is 960000 M⁻¹ s⁻¹.
